In article PMC12416549 (2024):

T1: TNFR1 (Homo sapiens, UniProt P19438)
T1 chain: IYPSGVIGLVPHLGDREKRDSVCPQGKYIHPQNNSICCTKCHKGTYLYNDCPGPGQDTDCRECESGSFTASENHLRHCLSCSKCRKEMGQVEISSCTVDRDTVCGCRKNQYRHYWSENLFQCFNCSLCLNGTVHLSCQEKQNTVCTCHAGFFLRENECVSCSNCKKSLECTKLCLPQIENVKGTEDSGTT


Target: T1, TNFR1
Assay: yeast display SC50

| apparent Kd (screen) [nM] | Binder |
| --- | --- |
| 8.56 | E10K (designed binder) MTLQELLREKALRRAEAEAFRYALELLAEKFPEQKEYLLDLAEEIESQIRSLSGVDVEDVRKFLDKEWAWVKELLAEHPAELAEVEAARAARLAELRAEVEAKVAA |
| 12.5 | W70D (designed binder) MTLQELLREEALRRAEAEAFRYALELLAEKFPEQKEYLLDLAEEIESQIRSLSGVDVEDVRKFLDKEWADVKELLAEHPAELAEVEAARAARLAELRAEVEAKVAA |
| 4.83 | A42W (designed binder) MTLQELLREEALRRAEAEAFRYALELLAEKFPEQKEYLLDLWEEIESQIRSLSGVDVEDVRKFLDKEWAWVKELLAEHPAELAEVEAARAARLAELRAEVEAKVAA |
| 0.593 | L26M (designed binder) MTLQELLREEALRRAEAEAFRYALEMLAEKFPEQKEYLLDLAEEIESQIRSLSGVDVEDVRKFLDKEWAWVKELLAEHPAELAEVEAARAARLAELRAEVEAKVAA |
| 0.718 | E73G (designed binder) MTLQELLREEALRRAEAEAFRYALELLAEKFPEQKEYLLDLAEEIESQIRSLSGVDVEDVRKFLDKEWAWVKGLLAEHPAELAEVEAARAARLAELRAEVEAKVAA |
| 0.869 | A83C (designed binder) MTLQELLREEALRRAEAEAFRYALELLAEKFPEQKEYLLDLAEEIESQIRSLSGVDVEDVRKFLDKEWAWVKELLAEHPAELCEVEAARAARLAELRAEVEAKVAA |
| 0.718 | A15E (designed binder) MTLQELLREEALRREEAEAFRYALELLAEKFPEQKEYLLDLAEEIESQIRSLSGVDVEDVRKFLDKEWAWVKELLAEHPAELAEVEAARAARLAELRAEVEAKVAA |
| 22.2 | A28Y (designed binder) MTLQELLREEALRRAEAEAFRYALELLYEKFPEQKEYLLDLAEEIESQIRSLSGVDVEDVRKFLDKEWAWVKELLAEHPAELAEVEAARAARLAELRAEVEAKVAA |
| 0.869 | F20M (designed binder) MTLQELLREEALRRAEAEAMRYALELLAEKFPEQKEYLLDLAEEIESQIRSLSGVDVEDVRKFLDKEWAWVKELLAEHPAELAEVEAARAARLAELRAEVEAKVAA |
| 29.5 | W70T (designed binder) MTLQELLREEALRRAEAEAFRYALELLAEKFPEQKEYLLDLAEEIESQIRSLSGVDVEDVRKFLDKEWATVKELLAEHPAELAEVEAARAARLAELRAEVEAKVAA |
| 2.25 | V85P (designed binder) MTLQELLREEALRRAEAEAFRYALELLAEKFPEQKEYLLDLAEEIESQIRSLSGVDVEDVRKFLDKEWAWVKELLAEHPAELAEPEAARAARLAELRAEVEAKVAA |
| 12.5 | W70H (designed binder) MTLQELLREEALRRAEAEAFRYALELLAEKFPEQKEYLLDLAEEIESQIRSLSGVDVEDVRKFLDKEWAHVKELLAEHPAELAEVEAARAARLAELRAEVEAKVAA |
| 0.49 | V104Q (designed binder) MTLQELLREEALRRAEAEAFRYALELLAEKFPEQKEYLLDLAEEIESQIRSLSGVDVEDVRKFLDKEWAWVKELLAEHPAELAEVEAARAARLAELRAEVEAKQAA |
| 0.718 | E101H (designed binder) MTLQELLREEALRRAEAEAFRYALELLAEKFPEQKEYLLDLAEEIESQIRSLSGVDVEDVRKFLDKEWAWVKELLAEHPAELAEVEAARAARLAELRAEVHAKVAA |
